Patent US12697371B2, “Method for preventing, treating or delaying myocardial damage using neuregulin and composition” (ZENSUN (SHANGHAI) SCIENCE & TECHNOLOGY, CO., LTD., priority 2019, dated 2026)
Entries after “also recorded” stand apart in the source; their conditions may differ.

Legend:
[1] = tested on: rats with acute myocardial infarction caused by left coronary artery ligation; test: Echocardiography, rat acute myocardial infarction (left coronary artery ligation), 60-day subcutaneous NRG at different doses (Example 1); assay type: in vivo, Wistar rats; conditions: for EF / LVEDd / LVEDs: 3 times a day
Text: 5.1 Establishment of a Rat Model of Heart Failure Caused by Coronary Artery Ligation
The rats were anesthetized with isoflurane through a gaseous anesthesia apparatus. Then, the rats were fixed in a supine position. After chest hair removal, the skin was disinfected with 75% alcohol. After the incision of the left anterior chest skin, the thoracic muscles were bluntly separated, with the 4th and 5th ribs exposed. Hemostatic forceps were used to bluntly cut off the muscle between the 4th and 5th ribs. Both hands were used to squeeze the heart out of the thoracic cavity so that the heart should be fully exposed for observation of lung inflation and heartbeats. The left atrial appendage and pulmonary conus were fully exposed to ligate the left anterior descending coronary artery (LADCA) with surgical suture between them. […] Then, the thoracic muscles and skin were sutured. After surgery, the rats were put back into the cages for feeding and close observations.
Administration began on the day following the animal model establishment of myocardial infarction.
(§1) After being anesthetized with 4% isoflurane, the rats were fixed onto the operating board in the left lateral recumbent position. The head of the rats was fixed in the breathing mask of the gaseous anesthesia machine, with isoflurane used for maintenance of anesthesia. After chest hair removal, the skin was disinfected with 75% alcohol and coated with a coupling agent. An echocardiography probe was used to detect any echo signal from the left ventricle of the rats. The left ventricular end-diastolic diameter and left ventricular end-systolic diameter (D) were measured. The left ventricular end-diastolic volume (EDV) and end-systolic volume (ESV) were calculated. Also, the ejection fraction (EF) value was found, EF=(EDV−ESV)/EDV*100%.

[2] = tested on: rats with acute myocardial infarction caused by left coronary artery ligation; test: Echocardiography, rat acute myocardial infarction, long-term subcutaneous NRG followed by withdrawal through frequency reduction (Example 3); assay type: in vivo, Wistar rats
Experimental: Established in the same way as the rat model of heart failure caused by coronary artery ligation in 5.1, Embodiment 1
The rats were randomly divided into groups and medicated upon coronary artery ligation. According to post-ligation survival, the rats were randomly divided into two groups, including the excipient group and the NRG30 μg/kg group. There were 19 rats in the excipient group and there were 18 rats in the NRG group. Continuous administration of medicine started on the day following the modeling, with subcutaneous administration for 3 times a day, at a dose of 10 μg/kg. Echocardiography was performed on day 14 after modeling. All the animals were medicated continuously until day 38, and the animals in the NRG group were examined by echocardiography. The animals in the NRG group were averagely divided into two subgroups, with the animals in one subgroup continuing to be medicated while the animals in the other subgroup stopped taking medicine at an early stage. The excipient group continued to be medicated. For the continuous NRG administration subgroup, a 3-week withdrawal plan was implemented on day 49: medicated every other day in the first week; medicated every three days in the second week; subcutaneously injected with NRG every four days in the third week. In terms of administration method, the rats were subcutaneously injected with NRG 3 times a day, exactly the same as above. For the NRG withdrawal subgroup, the clinical symptoms of the rats were observed. All the animals underwent echocardiography every week for monitoring of the changes in the cardiac function.
as §1
All experimental data were expressed in ±SD. GraphPad Prism6 was used for one-way ANOVA analysis. P<0.05 indicates a significant inter-group difference; P<0.01 indicates an extremely significant inter-group difference.

[3] = DAY 14, 30 μg/kg sc (10 μg/kg 3 times a day), continuous
[4] = DAY 21, 30 μg/kg sc (10 μg/kg 3 times a day), continuous
[5] = DAY 28, 30 μg/kg sc (10 μg/kg 3 times a day), continuous
[6] = DAY 35, 30 μg/kg sc (10 μg/kg 3 times a day), continuous
[7] = DAY 38, Administration subgroup, 30 μg/kg sc continued
[8] = DAY 38, Withdrawal subgroup, 30 μg/kg sc until day 38, then stopped
[9] = DAY 42, Administration subgroup, 30 μg/kg sc continued
[10] = DAY 42, Withdrawal subgroup, 30 μg/kg sc until day 38, then stopped
[11] = DAY 49, Administration subgroup, 30 μg/kg sc continued
[12] = DAY 49, Withdrawal subgroup, 30 μg/kg sc until day 38, then stopped
[13] = DAY 56, Administration subgroup, 30 μg/kg sc, 3-week gradual withdrawal by frequency reduction from day 49
[14] = DAY 56, Withdrawal subgroup, 30 μg/kg sc until day 38, then stopped
[15] = DAY 63, Administration subgroup, 30 μg/kg sc, 3-week gradual withdrawal by frequency reduction from day 49
[16] = DAY 63, Withdrawal subgroup, 30 μg/kg sc until day 38, then stopped
[17] = DAY 68, Administration subgroup, 30 μg/kg sc, 3-week gradual withdrawal by frequency reduction from day 49
[18] = DAY 68, Withdrawal subgroup, 30 μg/kg sc until day 38, then stopped
[19] = DAY 74, Administration subgroup, 30 μg/kg sc, 3-week gradual withdrawal by frequency reduction from day 49
[20] = DAY 74, Withdrawal subgroup, 30 μg/kg sc until day 38, then stopped

B1: NRG: fragment of the NRG-1β2 isomer, 177-237 amino acid fragment containing an EGF-like domain (SEQ ID NO: 1); developed by Zensun (protein, listed as Homo sapiens)
chain: SHLVKCAEKEKTFCVNGGECFMVKDLSNPSRYLCKCPNEFTGDRCQNYVMASFYKAEELYQ
- EF ([1]; DAY 20, 3.75 μg/kg/D sc): 39.7 ± 10.84%
- LVEDd ([1]; DAY 20, 3.75 μg/kg/D sc): 0.937 ± 0.06 cm
- LVEDs ([1]; DAY 20, 3.75 μg/kg/D sc): 0.777 ± 0.08 cm
- EF ([1]; DAY 20, 7.5 μg/kg/D sc): 41.9 ± 15.17%
- LVEDd ([1]; DAY 20, 7.5 μg/kg/D sc): 0.924 ± 0.05 cm
- LVEDs ([1]; DAY 20, 7.5 μg/kg/D sc): 0.756 ± 0.08 cm
- EF ([1]; DAY 20, 15 μg/kg/D sc): 40.6 ± 9.15%
- LVEDd ([1]; DAY 20, 15 μg/kg/D sc): 0.908 ± 0.05 cm
- LVEDs ([1]; DAY 20, 15 μg/kg/D sc): 0.759 ± 0.08 cm
- EF ([1]; DAY 40, 3.75 μg/kg/D sc): 40.4 ± 12.86%
- LVEDd ([1]; DAY 40, 3.75 μg/kg/D sc): 0.982 ± 0.09 cm
- LVEDs ([1]; DAY 40, 3.75 μg/kg/D sc): 0.813 ± 0.13 cm
- EF ([1]; DAY 40, 7.5 μg/kg/D sc): 40.5 ± 13.39%
- LVEDd ([1]; DAY 40, 7.5 μg/kg/D sc): 0.946 ± 0.08 cm
- LVEDs ([1]; DAY 40, 7.5 μg/kg/D sc): 0.782 ± 0.12 cm
- EF ([1]; DAY 40, 15 μg/kg/D sc): 42.2 ± 11.27%
- LVEDd ([1]; DAY 40, 15 μg/kg/D sc): 0.946 ± 0.08 cm
- LVEDs ([1]; DAY 40, 15 μg/kg/D sc): 0.775 ± 0.11 cm
- EF ([1]; DAY 60, 3.75 μg/kg/D sc): 37.0±12.23%
- LVEDd ([1]; DAY 60, 3.75 μg/kg/D sc): 0.994±0.08 cm
- LVEDs ([1]; DAY 60, 3.75 μg/kg/D sc): 0.839±0.12 cm
- EF ([1]; DAY 60, 7.5 μg/kg/D sc): 38.4±12.17%
- LVEDd ([1]; DAY 60, 7.5 μg/kg/D sc): 0.965±0.07 cm
- LVEDs ([1]; DAY 60, 7.5 μg/kg/D sc): 0.808±0.11 cm
- EF ([1]; DAY 60, 15 μg/kg/D sc): 42.9±11.32%
- LVEDd ([1]; DAY 60, 15 μg/kg/D sc): 0.975±0.07 cm
- LVEDs ([1]; DAY 60, 15 μg/kg/D sc): 0.794±0.10 cm
- Cardiac function / EF value compared with the control group ([1]; high-, middle- and low-dose groups (15, 7.5, 3.75 μg/kg/D sc), after 60 days of continuous administration): all improved; also recorded: higher than that of the control group
- LVEDd and LVEDs compared with the excipient group ([1]; high-dose group (15 μg/kg/D sc), 60 days): could be reduced
- LVEDd and LVEDs, cardiac systolic function, left ventricular remodeling ([2]; 30 μg/kg sc, after 35 consecutive days): significantly reduce the LVEDd and LVEDs and strengthen the cardiac systolic function, thereby reversing left ventricular remodeling
- EF [2, 3]: 44.5 ± 7.85 %
- LVEDd [2, 3]: 0.860 ± 0.04 cm
- LVEDs [2, 3]: 0.694 ± 0.06 cm
- EF [2, 4]: 45.5 ± 7.96 %
- LVEDd [2, 4]: 0.905 ± 0.04 cm
- LVEDs [2, 4]: 0.725 ± 0.06 cm
- EF [2, 5]: 44.3 ± 6.95 %
- LVEDd [2, 5]: 0.928 ± 0.05 cm
- LVEDs [2, 5]: 0.749 ± 0.06 cm
- EF [2, 6]: 44.9±6.09%
- LVEDd [2, 6]: 0.953±0.05 cm
- LVEDs [2, 6]: 0.767±0.06 cm
- EF [2, 7]: 44.9 ± 7.03%
- LVEDd [2, 7]: 0.953 ± 0.06 cm
- LVEDs [2, 7]: 0.764 ± 0.07 cm
- EF [2, 8]: 44.7 ± 6.26%
- LVEDd [2, 8]: 0.952 ± 0.05 cm
- LVEDs [2, 8]: 0.767 ± 0.07 cm
- EF [2, 9]: 46.5 ± 4.01 %
- LVEDd [2, 9]: 0.948 ± 0.04 cm
- LVEDs [2, 9]: 0.755 ± 0.04 cm
- EF [2, 10]: 39.1 ± 7.11 %
- LVEDd [2, 10]: 0.969 ± 0.04 cm
- LVEDs [2, 10]: 0.808 ± 0.05 cm
- EF [2, 11]: 45.0±5.51%
- LVEDd [2, 11]: 0.973±0.07 cm
- LVEDs [2, 11]: 0.783±0.08 cm
- EF [2, 12]: 42.2±5.48%
- LVEDd [2, 12]: 0.987±0.05 cm
- LVEDs [2, 12]: 0.807±0.06 cm
- EF [2, 13]: 38.8 ± 3.78 %
- LVEDd [2, 13]: 1.008 ± 0.06 cm
- LVEDs [2, 13]: 0.843 ± 0.06 cm
- EF [2, 14]: 39.0 ± 6.24 %
- LVEDd [2, 14]: 1.031 ± 0.05 cm
- LVEDs [2, 14]: 0.859 ± 0.07 cm
- EF [2, 15]: 41.3±4.92%
- LVEDd [2, 15]: 0.989±0.07 cm
- LVEDs [2, 15]: 0.814±0.08 cm
- EF [2, 16]: 35.4±6.78%
- LVEDd [2, 16]: 1.043±0.06 cm
- LVEDs [2, 16]: 0.887±0.06 cm
- EF [2, 17]: 40.8±4.67%
- LVEDd [2, 17]: 0.976±0.06 cm
- LVEDs [2, 17]: 0.805±0.07 cm
- EF [2, 18]: 38.9±5.04%
- LVEDd [2, 18]: 1.010±0.06 cm
- LVEDs [2, 18]: 0.842 ± 0.06 cm
- EF [2, 19]: 38.0 ± 3.81 %
- LVEDd [2, 19]: 1.004 ± 0.05 cm
- LVEDs [2, 19]: 0.842 ± 0.05 cm
- EF [2, 20]: 34.6 ± 7.55%
- LVEDd [2, 20]: 1.060 ± 0.05 cm
- LVEDs [2, 20]: 0.905 ± 0.05 cm
- Effect of sudden withdrawal on cardiac function ([2]; day 49, withdrawal subgroup stopped after day 38): exerted some effect on the cardiac function of the rats
- Cardiac function and cardiac remodeling, overall conclusion ([2]; long-term sc administration followed by withdrawal through frequency reduction): can improve the cardiac function of the rats with myocardial infarction and reduce cardiac remodeling
